# Test results: the RNAGym collection of RNA variant scans (doi:10.1073/pnas.2313332121)
# Variants at the floor of the assay were thinned out.
# B1: TPR 5TU (parent)
# chain: GGAUCUUCUCGAUCUAACAAAAAAGACAAAUCUGCCACAAAGCUUGAGAGCAUCUUCGGAUGCAGAGGCGGCAGCCUUCGGUGGCGCGAUAGCGCCAACGUUCUCAACUAUGACACGCAAAACGCGUGCUCCGUUGAAUGGAGUUUAUCAUG
# Variants of: B1
# Test: polymerase ribozyme fitness, log enrichment relative to wild type (log ratio); higher = more active; in vitro selection for triplet polymerase activity
# In short: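 To select mutant libraries of each subunit of a heterodimeric triplet polymerase ribozyme, built by PCR and transcribed, each was annealed with a biotinylated primer, partner subunit and triplets, then incubated frozen at −7 °C. Extended constructs were gel-excised, captured on streptavidin beads and amplified by RT-PCR, in one round carried out in triplicate. Illumina sequencing of input and output libraries kept genotypes with ≥10 input reads and ≥1 read per output. Fitness is the base-2 logarithm of genotype enrichment relative to wild-type enrichment, from inverse-variance-weighted replicate averages.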
row,Variant,polymerase ribozyme fitness (log ratio)
1,C54G U55A C108G A122U,≤ -4.2
2,C51A A137C,≤ -4.2
3,C63U C93A C116G A142G,-3.41
4,U33A G50C G81A C93G C96U A98G C103G G152U,≤ -4.2
5,C57A A91G,-2.76
6,C8U U53A,-3.41
7,C54U U56C,-0.57
8,C57U G94A,-0.629
9,A24G C85A U146C,≤ -4.2
10,U78G C85U G126U,≤ -4.2
11,C10U G88U,≤ -4.2
12,C5A G92A U104G A120U C123A U130G,≤ -4.2
13,A40U C54U A97U C99U,-2.64
14,A29U U111C C114G G140U,≤ -4.2
15,C118U U135C,-2.19
16,A41U U53A G88A U101G C108U G128C A142C,≤ -4.2
17,A19U A73G G86U,-1.03
18,U33G A52G A73G G92C A107U C114U C125U U134C G141C,≤ -4.2
19,A12G A20G A60G,-0.113
20,U31G G58A C85A C114G A115U,-4.05
21,A3G C36G U77C,≤ -4.2
22,G50C C63G G94C C103A C132U,-4.08
23,C8G C116G,-3.15
24,G50A A60C G86A,-3.81

row,Variant,polymerase ribozyme fitness (log ratio)
1,C10A A41U C51G C87A,≤ -4.2
2,A60G A91C C95U A110U C114U C118G A150U,≤ -4.2
3,C27A G46A U53A U56G A91C A106C A110G A138G,≤ -4.2
4,C5G C93G,-2.51
5,A40U C54U G71U C95A U146C G152A,≤ -4.2
6,C36U C38U G83A A121U,-1.34
7,G58C A66G G140U,≤ -4.2
8,G59C C76A C87U A147C,-2.29
9,A29C G58A C87G C93G G133A U145C,≤ -4.2
10,G86A A110U A138G,≤ -4.2
11,U45G C54U A119U U146G,-2.19
12,C5G G83U A98U C105U,-1.03
13,U53A C72U A97G U134A,-3.33
14,C36A C75U G83A A89C C99G C105U C123A C125A,≤ -4.2
15,G11A U15G G46A A47G A60G G92C C96A,≤ -4.2
16,U7A A26G C75G C93A,-4.13
17,A122U C149U,-0.616
18,A12G C14G A17G C75U A91G C105U A106G A121U A137U,≤ -4.2
19,A17C A26G A41C C54A C72U C87A G100C G143U,≤ -4.2
20,A21G C38U A60G C85U,1
21,C18G G71C C76A G88A G94A A113G A119U C129U,≤ -4.2
22,A37U A64U,≤ -4.2
23,A17G G48A,-1.03
24,U15A C57A C76U G84C,-1.52

row,Variant,polymerase ribozyme fitness (log ratio)
1,C36A C105U U127G,≤ -4.2
2,U15A A17C C32G A60G C99U C116U,≤ -4.2
3,C18G A24G C57U C93G G94C G117C,≤ -4.2
4,U13C U33A C54A C95G A98C C99A A150G,≤ -4.2
5,C10U A29U G92A C99A U145C,≤ -4.2
6,G88A C118A A120G,≤ -4.2
7,U44A C85U,-4.17
8,C38G A40G A49G A60U C93A A121G,≤ -4.2
9,C93U U144G,-0.253
10,U127G A138G A142C,-3.48
11,C76G G81A,≤ -4.2
12,C38A U55A A106C G117A U146A,-1.67
13,A91G A121U,-3.01
14,G86U C93A G94A,-0.505
15,C75U C85U U111G A121U G152A,≤ -4.2
16,G81A A115U A142U,-2.42
17,A47U U56A G94A C118U A121U,-0.95
18,C36U C54A C95G C108U U109C C116U,≤ -4.2
19,A91G,-2.77
20,A52U U104A G133C G141C U146G,≤ -4.2
21,A47G A91G A97G G112C,≤ -4.2
22,A22U U31G C54G C85U U146C,-0.611
23,U53A G86A,-2.07
24,G42C G68U C85U G128A A150C,≤ -4.2

row,Variant,polymerase ribozyme fitness (log ratio)
1,U44A U53A C79G C85G A119G U135G,≤ -4.2
2,A73G G86A,-2.14
3,C5G G25C A28C C57G G58A C76G G143U,≤ -4.2
4,A41C C85U C99G C132G U139A,≤ -4.2
5,A40G G143A,-2.88
6,C85U U90C,-3.89
7,A12U A16C C57G G81A U104G A115G,≤ -4.2
8,A97G C131G,-3.21
9,A97G C131A,-2.32
10,U13G U56A G86U C131U,-4.16
11,C10A U33A U78G U90A G140A,≤ -4.2
12,A24G U145A,-3.78
13,C36G G84A,-4.19
14,A24U U53A U56G C57U A91U,≤ -4.2
15,C38G A41G U55A G83A G143A,-1.78
16,A26C A52U A89C,-3.85
17,A12G C57G G59A C96U U127G,-3.86
18,U55C C75G C76U G80A C87G C108U,≤ -4.2
19,C8A G58C,-4.1
20,G84A C123U,-0.156
21,U13G A21C G48U,-1.33
22,C87A U144G,-3.92
23,U6A G88C C116U,≤ -4.2
24,A22G G83A C105A,-3.83

row,Variant,polymerase ribozyme fitness (log ratio)
1,A22C G141U,1.81
2,U9G U77C C85A C108U A120C G141C,≤ -4.2
3,G88A A89G,-3.67
4,C103A U144G,-2.84
5,G59C U61A,-1.51
6,G25A C38U C85G,-4.07
7,G11C A47U C85U,-2.5
8,A52G U135G U139C A147C,≤ -4.2
9,A24U C35A A41C G88C,≤ -4.2
10,C27G G71A A138C A142C,≤ -4.2
11,A23G C35A A142G,-3.78
12,U45A G92C,-3.75
13,C38U C57A C63U C95U A98U C99G,-1.54
14,C38U C85A G117C,-0.0326
15,A24U A37U U82G,-0.974
16,U56C C132U,-1.47
17,C27U A91G A147C G152U,≤ -4.2
18,A137C A138G,-3.68
19,U13G C51G A91C,≤ -4.2
20,G48A G50A U56G U148C,≤ -4.2
21,G34U G83U A115G U145G,≤ -4.2
22,A29C A30C G65A C93U G136A,≤ -4.2
23,C10U G50C A64C G65C C93A A142U,≤ -4.2
24,C18U A29U A52C C93A C125G U144A A147U,≤ -4.2

row,Variant,polymerase ribozyme fitness (log ratio)
1,A115C C123A,-1.17
2,A41U U55A C85A A150U,-2.65
3,C114U G136C,-3.39
4,A3U G80U G94U U104G C108U G126C U148A,≤ -4.2
5,A47U C54U C114U,-2.94
6,A52U U56A C79G C105A,≤ -4.2
7,U13A A16C A91G,-2.83
8,C35U G124U,-1.25
9,U31G A52U A60G A98G,-4
10,A12G C69G A89U C96G U104A,-2.98
11,A52C A98G C132G,≤ -4.2
12,A20U C27A C38G C54U C79U G112A,≤ -4.2
13,U56A C87U A98U C116G,0.0809
14,A17U C95U C99A A107G G133U,≤ -4.2
15,C93A C103G,-3.88
16,C125A A147U,-0.189
17,G11U C14U C72U G143A,≤ -4.2
18,G124A U148C,-0.766
19,C38U A40C G81A A91G C125G,-3.83
20,A17U G50U C63U C93U C103U G126A C132U,-3.74
21,C5A G141U,0.735
22,U55A G84A A119C G133U G143A,-4.03
23,A39C G92U C95A G112A U145G,≤ -4.2
24,U4A C36A G48C G86A,≤ -4.2

row,Variant,polymerase ribozyme fitness (log ratio)
1,A41C G88A G92A A115U U151G,≤ -4.2
2,U56C C75A G88C C99G,≤ -4.2
3,A19C U45A G59U U148A C149G,≤ -4.2
4,C5U U82A C85A C99A U101G G140C,≤ -4.2
5,A40C U82G G94A,0.746
6,A39C C54A G81A,-3.05
7,C96U C123U,-0.655
8,A30G U44C G88C C105A,≤ -4.2
9,A23C U53A G83C A91G A147U,≤ -4.2
10,U45G G128U,-3.86
11,A19U G59A G83U U139G,-1.28
12,A16U G68A C87A G94C G141A,≤ -4.2
13,A98U A137C,-4.19
14,A20C A49G G81A C87G U104G A138C,≤ -4.2
15,A20C C76G,≤ -4.2
16,A52G U104A A122G U139G,-1.23
17,C76U C85U,-2.03
18,G59C A110G,-3.79
19,C85U C87U U144G,0.338
20,U13C U90G C116A,-4.13
21,G67U U102G,≤ -4.2
22,G58C G86C A89U,-3.91
23,A23C U55A C87G C114G G133U G136U,≤ -4.2
